Reference: patent publication US20260242735A1 (UNIVERSIT T BASEL, published 2026)

Experiments:
Test in all cases: alanine scan, flow cytometry;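 also: HEK293-T cells transiently expressing single-residue alanine mutants of CD33 (alanine swapped to serine), antibody binding read by fluorescence in duplicate, background-subtracted, expressed relative to wild-type CD33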
human CD33 W22A = human CD33 W22A (human, UniProt P20138 18-364)
human CD33 L23A = human CD33 L23A (human, UniProt P20138 18-364)
human CD33 Q24A = human CD33 Q24A (human, UniProt P20138 18-364)
human CD33 V25A = human CD33 V25A (human, UniProt P20138 18-364)
human CD33 Q26A = human CD33 Q26A (human, UniProt P20138 18-364)
Chain of human CD33 Q26A (P20138 18-364 Q26A limits assumed): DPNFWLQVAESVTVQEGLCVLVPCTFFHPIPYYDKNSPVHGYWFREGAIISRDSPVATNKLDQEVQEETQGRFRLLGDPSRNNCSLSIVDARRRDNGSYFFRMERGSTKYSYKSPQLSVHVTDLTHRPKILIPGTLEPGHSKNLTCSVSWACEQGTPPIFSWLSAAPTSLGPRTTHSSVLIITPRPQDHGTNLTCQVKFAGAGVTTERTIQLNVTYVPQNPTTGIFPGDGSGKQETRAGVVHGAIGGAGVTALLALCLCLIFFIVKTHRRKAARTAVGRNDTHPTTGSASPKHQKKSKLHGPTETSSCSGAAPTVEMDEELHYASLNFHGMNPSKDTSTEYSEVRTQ

human CD33 E27A = human CD33 E27A (human, UniProt P20138 18-364)
human CD33 S28A = human CD33 S28A (human, UniProt P20138 18-364)
Chain of human CD33 S28A (P20138 18-364 S28A limits assumed): as the sequence (P20138 18-364 Q26A limits assumed) above, with A9Q, S11A counted along it

human CD33 V31A = human CD33 V31A (human, UniProt P20138 18-364)
Chain of human CD33 V31A (P20138 18-364 V31A limits assumed): as the sequence (P20138 18-364 Q26A limits assumed) above, with A9Q, V14A counted along it

human CD33 Q32A = human CD33 Q32A (human, UniProt P20138 18-364)
Chain of human CD33 Q32A (P20138 18-364 Q32A limits assumed): as the sequence (P20138 18-364 Q26A limits assumed) above, with A9Q, Q15A counted along it

human CD33 E33A = human CD33 E33A (human, UniProt P20138 18-364)
Chain of human CD33 E33A (P20138 18-364 E33A limits assumed): as the sequence (P20138 18-364 Q26A limits assumed) above, with A9Q, E16A counted along it

human CD33 G34A = human CD33 G34A (human, UniProt P20138 18-364)
human CD33 C36A = human CD33 C36A (human, UniProt P20138 18-364)
Chain of human CD33 C36A (P20138 18-364 C36A limits assumed): as the sequence (P20138 18-364 Q26A limits assumed) above, with A9Q, C19A counted along it

human CD33 P40A = human CD33 P40A (human, UniProt P20138 18-364)
human CD33 F43A = human CD33 F43A (human, UniProt P20138 18-364)
human CD33 F44A = human CD33 F44A (human, UniProt P20138 18-364)
Chain of human CD33 F44A (P20138 18-364 F44A limits assumed): as the sequence (P20138 18-364 Q26A limits assumed) above, with A9Q, F27A counted along it

human CD33 H45A = human CD33 H45A (human, UniProt P20138 18-364)
human CD33 I47A = human CD33 I47A (human, UniProt P20138 18-364)
human CD33 Y49A = human CD33 Y49A (human, UniProt P20138 18-364)
human CD33 D51A = human CD33 D51A (human, UniProt P20138 18-364)
human CD33 S54A = human CD33 S54A (human, UniProt P20138 18-364)
human CD33 V56A = human CD33 V56A (human, UniProt P20138 18-364)
Chain of human CD33 V56A (P20138 18-364 V56A limits assumed): as the sequence (P20138 18-364 Q26A limits assumed) above, with A9Q, V39A counted along it

human CD33 H57A = human CD33 H57A (human, UniProt P20138 18-364)
human CD33 Y59A = human CD33 Y59A (human, UniProt P20138 18-364)
Chain of human CD33 Y59A (P20138 18-364 Y59A limits assumed): as the sequence (P20138 18-364 Q26A limits assumed) above, with A9Q, Y42A counted along it

human CD33 A65S = human CD33 A65S (human, UniProt P20138 18-364)
human CD33 I66A = human CD33 I66A (human, UniProt P20138 18-364)
Chain of human CD33 I66A (P20138 18-364 I66A limits assumed): as the sequence (P20138 18-364 Q26A limits assumed) above, with A9Q, I49A counted along it

human CD33 S68A = human CD33 S68A (human, UniProt P20138 18-364)
human CD33 R69A = human CD33 R69A (human, UniProt P20138 18-364)
human CD33 D70A = human CD33 D70A (human, UniProt P20138 18-364)
human CD33 D18A = human CD33 D18A (human, UniProt P20138 19-364)
human CD33 P72A = human CD33 P72A (human, UniProt P20138 18-364)
human CD33 V73A = human CD33 V73A (human, UniProt P20138 18-364)
Chain of human CD33 V73A (P20138 18-364 V73A limits assumed): as the sequence (P20138 18-364 Q26A limits assumed) above, with A9Q, V56A counted along it

human CD33 T75A = human CD33 T75A (human, UniProt P20138 18-364)
human CD33 N76A = human CD33 N76A (human, UniProt P20138 18-364)
human CD33 K77A = human CD33 K77A (human, UniProt P20138 18-364)
Chain of human CD33 K77A (P20138 18-364 K77A limits assumed): as the sequence (P20138 18-364 Q26A limits assumed) above, with A9Q, K60A counted along it

human CD33 L78A = human CD33 L78A (human, UniProt P20138 18-364)
Chain of human CD33 L78A (P20138 18-364 L78A limits assumed): as the sequence (P20138 18-364 Q26A limits assumed) above, with A9Q, L61A counted along it

human CD33 Q80A = human CD33 Q80A (human, UniProt P20138 18-364)
human CD33 Q83A = human CD33 Q83A (human, UniProt P20138 18-364)
human CD33 E85A = human CD33 E85A (human, UniProt P20138 18-364)
human CD33 Q87A = human CD33 Q87A (human, UniProt P20138 18-364)
Chain of human CD33 Q87A (P20138 18-364 Q87A limits assumed): as the sequence (P20138 18-364 Q26A limits assumed) above, with A9Q, Q70A counted along it

human CD33 G88A = human CD33 G88A (human, UniProt P20138 18-364)
human CD33 F90A = human CD33 F90A (human, UniProt P20138 18-364)
human CD33 F21A = human CD33 F21A (human, UniProt P20138 18-364)

B1: Refmab #4 (antibody, V domains shown)
VH: QVQLVQSGAEVKKPGESVKVSCKASGYTFTNYGMNWVKQAPGQGLEWMGWINTYTGEPTYADKFQGRVTMTTDTSTSTAYMEIRNLGGDDTAVYYCARWSWSDGYYVYFDYWGQGTSVTVSS
VL: DIVMTQSPDSLTVSLGERTTINCKSSQSVLDSSTNKNSLAWYQQKPGQPPKLLLSWASTRESGIPDRFSGSGSGTDFTLTIDSPQPEDSATYYCQQSAHFPITFGQGTRLEIK
notes: Full-length format is human IgG1 Fc silent (PG-LALA); The alanine scan used IgG or Fab
Human CD33 W22A
  Mean % WT Binding: 187 % WT
Human CD33 L23A
  Mean % WT Binding: 23.7 % WT
Human CD33 Q24A
  Mean % WT Binding: 68.3 % WT
Human CD33 V25A
  Mean % WT Binding: 49.1 % WT
Human CD33 Q26A
  Mean % WT Binding: 63.1 % WT
Human CD33 E27A
  Mean % WT Binding: 42.9 % WT
Human CD33 S28A
  Mean % WT Binding: 79.9 % WT
Human CD33 V31A
  Mean % WT Binding: 97.9 % WT
Human CD33 Q32A
  Mean % WT Binding: 83 % WT
Human CD33 E33A
  Mean % WT Binding: 87.1 % WT
Human CD33 G34A
  Mean % WT Binding: 93.4 % WT
Human CD33 C36A
  Mean % WT Binding: 108 % WT
Human CD33 P40A
  Mean % WT Binding: 43 % WT
Human CD33 F43A
  Mean % WT Binding: 7.8 % WT
Human CD33 F44A
  Mean % WT Binding: 152 % WT
Human CD33 H45A
  Mean % WT Binding: 134 % WT
Human CD33 I47A
  Mean % WT Binding: 144 % WT
Human CD33 Y49A
  Mean % WT Binding: 3.1 % WT
Human CD33 D51A
  Mean % WT Binding: 36 % WT
Human CD33 S54A
  Mean % WT Binding: 99.9 % WT
Human CD33 V56A
  Mean % WT Binding: 56.8 % WT
Human CD33 H57A
  Mean % WT Binding: 67.3 % WT
Human CD33 Y59A
  Mean % WT Binding: 97.6 % WT
Human CD33 A65S
  Mean % WT Binding: 84 % WT
Human CD33 I66A
  Mean % WT Binding: 108 % WT
Human CD33 S68A
  Mean % WT Binding: 90.4 % WT
Human CD33 R69A
  Mean % WT Binding: 118 % WT
Human CD33 D70A
  Mean % WT Binding: 82.7 % WT
Human CD33 D18A
  Mean % WT Binding: 110 % WT
Human CD33 P72A
  Mean % WT Binding: 94.6 % WT
Human CD33 V73A
  Mean % WT Binding: 67.2 % WT
Human CD33 T75A
  Mean % WT Binding: 93.8 % WT
Human CD33 N76A
  Mean % WT Binding: 34.7 % WT
Human CD33 K77A
  Mean % WT Binding: 123 % WT
Human CD33 L78A
  Mean % WT Binding: 111 % WT
Human CD33 Q80A
  Mean % WT Binding: 124 % WT
Human CD33 Q83A
  Mean % WT Binding: 104 % WT
Human CD33 E85A
  Mean % WT Binding: 110 % WT
Human CD33 Q87A
  Mean % WT Binding: 94.2 % WT
Human CD33 G88A
  Mean % WT Binding: 97.7 % WT
Human CD33 F90A
  Mean % WT Binding: 82.3 % WT
Human CD33 F21A
  Mean % WT Binding: 43.6 % WT

B2: Refmab #1 (antibody, V domains shown)
VH: EVQLVQSGAEVKKPGSSVKVSCKASGYTITDSNIHWVRQAPGQSLEWIGYIYPYNGGTDYNQKFKNRATLTVDNPTNTAYMELSSLRSEDTAFYYCVNGNPWLAYWGQGTLVTVSS
VL: DIQLTQSPSTLSASVGDRVTITCRASESLDNYGIRFLTWFQQKPGKAPKLLMYAASNQGSGVPSRFSGSGSGTEFTLTISSLQPDDFATYYCQQTKEVPWSFGQGTKVEVK
notes: Full-length format is human IgG1 (Absolute Antibody Ab00283-10.0); The alanine scan used IgG or Fab; also called hP67.6
Human CD33 W22A
  Mean % WT Binding: 79.4 % WT
Human CD33 L23A
  Mean % WT Binding: 82.7 % WT
Human CD33 Q24A
  Mean % WT Binding: 74.1 % WT
Human CD33 V25A
  Mean % WT Binding: 90.7 % WT
Human CD33 Q26A
  Mean % WT Binding: 81.4 % WT
Human CD33 E27A
  Mean % WT Binding: 82.5 % WT
Human CD33 S28A
  Mean % WT Binding: 93.9 % WT
Human CD33 V31A
  Mean % WT Binding: 87 % WT
Human CD33 Q32A
  Mean % WT Binding: 87 % WT
Human CD33 E33A
  Mean % WT Binding: 86.4 % WT
Human CD33 G34A
  Mean % WT Binding: 99.5 % WT
Human CD33 C36A
  Mean % WT Binding: 72.6 % WT
Human CD33 P40A
  Mean % WT Binding: 74.5 % WT
Human CD33 F43A
  Mean % WT Binding: 66.3 % WT
Human CD33 F44A
  Mean % WT Binding: 85.1 % WT
Human CD33 H45A
  Mean % WT Binding: 38.7 % WT
Human CD33 I47A
  Mean % WT Binding: 84.2 % WT
Human CD33 Y49A
  Mean % WT Binding: 106 % WT
Human CD33 D51A
  Mean % WT Binding: 82.4 % WT
Human CD33 S54A
  Mean % WT Binding: 87.6 % WT
Human CD33 V56A
  Mean % WT Binding: 94.3 % WT
Human CD33 H57A
  Mean % WT Binding: 78.2 % WT
Human CD33 Y59A
  Mean % WT Binding: 93.6 % WT
Human CD33 A65S
  Mean % WT Binding: 88.5 % WT
Human CD33 I66A
  Mean % WT Binding: 96.6 % WT
Human CD33 S68A
  Mean % WT Binding: 91.3 % WT
Human CD33 R69A
  Mean % WT Binding: 94.2 % WT
Human CD33 D70A
  Mean % WT Binding: 81.3 % WT
Human CD33 D18A
  Mean % WT Binding: 78.6 % WT
Human CD33 P72A
  Mean % WT Binding: 99.9 % WT
Human CD33 V73A
  Mean % WT Binding: 73.6 % WT
Human CD33 T75A
  Mean % WT Binding: 101 % WT
Human CD33 N76A
  Mean % WT Binding: 61.8 % WT
Human CD33 K77A
  Mean % WT Binding: 95.6 % WT
Human CD33 L78A
  Mean % WT Binding: 87.4 % WT
Human CD33 Q80A
  Mean % WT Binding: 91.6 % WT
Human CD33 Q83A
  Mean % WT Binding: 87.1 % WT
Human CD33 E85A
  Mean % WT Binding: 88.9 % WT
Human CD33 Q87A
  Mean % WT Binding: 91 % WT
Human CD33 G88A
  Mean % WT Binding: 96.1 % WT
Human CD33 F90A
  Mean % WT Binding: 73.9 % WT
Human CD33 F21A
  Mean % WT Binding: 0.4 % WT
